The source of these data is US20030148921.

Data set [1] addresses GPAR2^R34S activation site mutant fusion protein.
The target of data set [2] is GPAR3^K37S activation site mutant fusion protein.
Data set [3] deals with GPAR4^R47S activation site mutant fusion protein.
The target in data set [4] is activation site mutant fusion protein GPAR1^R45S.
Data set [5] addresses galactosidase-PAR1 (GPAR1) fusion protein [β-galactosidase: P00722].
Data set [6] concerns the target galactosidase-PAR2 (GPAR2) fusion protein.
The target in data set [7] is galactosidase-PAR3 (GPAR3) fusion protein.
Chain of galactosidase-PAR3 (GPAR3) fusion protein (chain, as listed by the source, chain 1 of 2): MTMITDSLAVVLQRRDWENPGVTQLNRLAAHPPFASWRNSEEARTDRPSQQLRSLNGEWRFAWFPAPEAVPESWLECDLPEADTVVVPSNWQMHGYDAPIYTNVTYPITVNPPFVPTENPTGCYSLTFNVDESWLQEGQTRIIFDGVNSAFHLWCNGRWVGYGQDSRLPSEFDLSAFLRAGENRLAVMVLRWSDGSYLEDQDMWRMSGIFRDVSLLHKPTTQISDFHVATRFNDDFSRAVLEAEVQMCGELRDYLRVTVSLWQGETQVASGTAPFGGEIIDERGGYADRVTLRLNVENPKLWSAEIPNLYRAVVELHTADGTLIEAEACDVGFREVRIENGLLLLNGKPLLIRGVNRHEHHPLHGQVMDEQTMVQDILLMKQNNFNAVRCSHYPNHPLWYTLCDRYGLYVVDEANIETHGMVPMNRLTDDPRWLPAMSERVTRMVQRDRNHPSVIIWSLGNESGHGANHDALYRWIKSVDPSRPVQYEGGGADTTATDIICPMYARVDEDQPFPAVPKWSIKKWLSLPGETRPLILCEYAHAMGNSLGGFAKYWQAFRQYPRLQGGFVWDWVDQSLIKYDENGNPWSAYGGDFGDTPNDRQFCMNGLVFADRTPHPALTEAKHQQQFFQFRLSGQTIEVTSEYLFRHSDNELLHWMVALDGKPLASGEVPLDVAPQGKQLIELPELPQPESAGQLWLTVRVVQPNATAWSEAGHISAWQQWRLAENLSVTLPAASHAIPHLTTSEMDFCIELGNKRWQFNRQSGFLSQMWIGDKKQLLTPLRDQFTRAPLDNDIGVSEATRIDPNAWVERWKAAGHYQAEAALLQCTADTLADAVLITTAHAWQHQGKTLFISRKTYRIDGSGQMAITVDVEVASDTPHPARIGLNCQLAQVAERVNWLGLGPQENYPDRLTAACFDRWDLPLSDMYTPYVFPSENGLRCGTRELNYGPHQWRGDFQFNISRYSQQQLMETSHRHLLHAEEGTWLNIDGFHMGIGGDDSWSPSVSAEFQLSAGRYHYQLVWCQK
Chain of galactosidase-PAR3 (GPAR3) fusion protein (chain, as listed by the source, chain 2 of 2): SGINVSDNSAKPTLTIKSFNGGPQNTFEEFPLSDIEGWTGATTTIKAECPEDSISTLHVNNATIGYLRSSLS
Data set [8] has as its target galactosidase-PAR4 (GPAR4) fusion protein.

Chain of GPAR4^R47S activation site mutant fusion protein (chain, as listed by the source R47S, chain 1 of 2): as the sequence (chain, as listed by the source, chain 1 of 2) above, with R47S counted along it
Chain of GPAR4^R47S activation site mutant fusion protein (chain, as listed by the source R47S, chain 2 of 2): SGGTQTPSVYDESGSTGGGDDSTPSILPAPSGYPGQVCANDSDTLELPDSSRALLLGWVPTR
Chain of galactosidase-PAR4 (GPAR4) fusion protein (chain, as listed by the source, chain 1 of 2): as the sequence (chain, as listed by the source, chain 1 of 2) above
Chain of galactosidase-PAR4 (GPAR4) fusion protein (chain, as listed by the source, chain 2 of 2): as the sequence (chain, as listed by the source R47S, chain 2 of 2) above, with S31R counted along it
Chain of galactosidase-PAR1 (GPAR1) fusion protein [β-galactosidase: P00722] (P00722 whole entry, chain 1 of 2, the tested form may be a part): as the sequence (chain, as listed by the source, chain 1 of 2) above
Chain of galactosidase-PAR1 (GPAR1) fusion protein [β-galactosidase: P00722] (chain, as listed by the source, chain 2 of 2): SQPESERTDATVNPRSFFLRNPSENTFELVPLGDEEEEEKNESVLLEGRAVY
Chain of galactosidase-PAR2 (GPAR2) fusion protein (chain, as listed by the source, chain 1 of 2): as the sequence (chain, as listed by the source, chain 1 of 2) above
Chain of galactosidase-PAR2 (GPAR2) fusion protein (chain, as listed by the source, chain 2 of 2): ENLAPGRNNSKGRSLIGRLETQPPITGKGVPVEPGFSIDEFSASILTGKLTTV

B1: human single-chain tPA (protein)
chain: SYQVICRDEKTQMIYQQHQSWLRPVLRSNRVEYCWCNSGRAQCHSVPVKSCSEPRCFNGGTCQQALYFSDFVCQCPEGFAGKCCEIDTRATCYEDQGISYRGTWSTAESGAECTNWNSSALAQKPYSGRRPDAIRLGLGNHNYCRNPDRDSKPWCYVFKAGKYSSEFCSTPACSEGNSDCYFGNGSAYRGTHSLTESGASCLPWNSMILIGKVYTAQNPSAQALGLGKHNYCRNPDGDAKPWCHVLKNRRLTWEYCDVPSCSTCGLRQYSQPQFRIKGGLFADIASHPWQAAIFAKHRRSPGERFLCGGILISSCWILSAAHCFQERFPPHHLTVILGRTYRVVPGEEEQKFEVEKYIVHKEFDDDTYDNDIALLQLKSDSSRCAQESSVVRTVCLPPADLQLPDWTECELSGYGKHEALSPFYSERLKEAHVRLYPSSRCTSQHLLNRTVTDNMLCAGDTRSGGPQANLHDACQGDSGGPLVCLNDGRMTLVGIISWGLGCGQKDVPGVYTKVTNYLDWIRDNMRP
In the case of B1, the β-Galactosidase release rate (mmol β-Galactosidase/(molProtease * min)) in data set [1], in data set [2], in data set [3], in data set [4], in data set [5] and in data set [6] was at most 0.01 throughout. In addition, the β-Galactosidase release rate (mmol β-Galactosidase/(molProtease * min)) in data set [7] is 0.03; in data set [8], at most 0.01.

B2: bovine activated protein C (protein)
chain: ANSFLEELRPGNVERECSEEVCEFEEAREIFQNTEDTMAFWSFYSDGDQCEDRPSGSPCDLPCCGRGKCIDGLGGFRCDCAEGWEGRFCLHEVRFSNCSAENGGCAHYCMEEEGRRHCSCAPGYRLEDDHQLCVSKVTFPCGRLGKRMEKKRKTLKRDTNQVDQKDQLDPRIVDGQEAGWGESPWQAVLLDSKKKLVCGAVLIHVSWVLTVAHCLDSRKKLIVRLGEYDMRRWESWEVDLDIKEVIIHPNYTKSTSDNDIALLRLAKPATLSQTIVPICLPDSGLSERKLTQVGQETVVTGWGYRDETKRNRTFVLSFIKVPVVPYNACVHAMENKISENMLCAGILGDPRDACEGDSGGPMVTFFRGTWFLVGLVSWGEGCGRLYNYGVYTKVSRYLDWIYGHIKAQEAPLESQVP
Consider B2, for which the β-Galactosidase release rate (mmol β-Galactosidase/(molProtease * min)) in data set [1], in data set [2], in data set [3], in data set [4], in data set [6] and in data set [8] was at most 0.01 throughout. Moreover, the “β-Galactosidase release rate (determined in the presence of hirudin)” value in data set [5] and in data set [7] was “≦1 * 10^-2 a” each time.

B3: human plasmin (protein)
chain: KVYLSECKTGNGKNYRGTMSKTKNGITCQKWSSTSPHRPRFSPATHPSEGLEENYCRNPDNDPQGPWCYTTDPEKRYDYCDILECEEECMHCSGENYDGKISKTMSGLECQAWDSQSPHAHGYIPSKFPNKNLKKNYCRNPDRELRPWCFTTDPNKRWELCDIPRCTTPPPSSGPTYQCLKGTGENYRGNVAVTVSGHTCQHWSAQTPHTHNRTPENFPCKNLDENYCRNPDGKRAPWCHTTNSQVRWEYCKIPSCDSSPVSTEQLAPTAPPELTPVVQDCYHGDGQSYRGTSSTTTTGKKCQSWSSMTPHRHQKTPENYPNAGLTMNYCRNPDADKGPWCFTTDPSVRWEYCNLKKCSGTEASVVAPPPVVLLPDVETPSEEDCMFGNGKGYRGKRATTVTGTPCQDWAAQEPHRHSIFTPETNPRAGLEKNYCRNPDGDVGGPWCYTTNPRKLYDYCDVPQCAAPSFDCGKPQVEPKKCPGRVVGGCVAHPHSWPWQVSLRTRFGMHFCGGTLISPEWVLTAAHCLEKSPRPSSYKVILGAHQEVNLEPHVQEIEVSRLFLEPTRKDIALLKLSSPAVITDKVIPACLPSPNYVVADRTECFITGWGETQGTFGAGLLKEAQLPVIENKVCNRYEFLNGRVQSTELCAGHLAGGTDSCQGDSGGPLVCFEKDKYILQGVTSWGLGCARPNKPGVYVRVSRFVTWIEGVMRNN
For the protein B3, the β-Galactosidase release rate (mmol β-Galactosidase/(molProtease * min)) in data set [1] turned out to be 0.35; in data set [2] it was 0.16; in data set [3], 0.26; in data set [4], 0.29; in data set [5] it was 4.1; in data set [6], 0.67. In addition, the β-Galactosidase release rate (mmol β-Galactosidase/(molProtease * min)) in data set [7] came out at 0.34; in data set [8] it was 0.48. The “cleavage efficiency, against GPAR2^R34S” value in data set [6] is “Plasmin cleaved GPAR2 two times more efficiently than GPAR2^R34S”. Also, in data set [6], the “cleavage rate, against trypsin” value is “only at a 560 fold lower rate than trypsin”. In addition, in data set [7], the “activity on GPAR3, against thrombin” value was “about 120 times less active than thrombin”.

B4: human leukocyte elastase (protein)
chain: IVGGRRARPHAWPFMVSLQLRGGHFCGATLIAPNFVMSAAHCVANVNVRAVRVVLGAHNLSRREPTRQVFAVQRIFENGYDPVNLLNDIVILQLNGSATINANVQVAQLPAQGRRLGNGVQCLAMGWGLLGRNRGIASVLQELNVTVVTSLCRRSNVCTLVRGRQAGVCFGDSGSPLVCNGLIHGIASFVRGGCASGLYPDAFAPVAQFVNWIDSIIQ
With B4, the β-Galactosidase release rate (mmol β-Galactosidase/(molProtease * min)) stood at 16 in data set [1]; 93 in data set [2]; 11 in data set [3]; 140 in data set [4]; 78 in data set [5]; 24 in data set [6]. The figures for the β-Galactosidase release rate (mmol β-Galactosidase/(molProtease * min)) in data set [7] and in data set [8] were 50 and 12, respectively.
